Assay results from US9724381B2 (THE ADMINISTRATORS OF THE TULANE EDUCATIONAL FUND, priority 2009, dated 2017).
Read-outs that look alike come from different tables or passages of the source. One block for each substance: values may come before it. Where no end group is shown, it is not given here. [ ]: non-standard residue; d: D form. The star is where a group is joined. d2Nal = N[C@H](Cc1ccc2ccccc2c1)C(=O)O; Palmitoyl = CCCCCCCCCCCCCCCC(=O)*; Octanoyl = CCCCCCCC(=O)*; Dap = NC[C@H](N)C(=O)O

Legend:
[1] = target: T1, ghrelin-R (GHS-R 1a) (Rattus norvegicus, UniProt O08725); experiment: Food intake after administration of peptide (FIG. 10); format: in vivo
T1 construct: from tissue; host or cells: whole animal (hypothalamus)

[2] = target: T1, ghrelin-R (GHS-R 1a); experiment: Plasma growth hormone / GH secretion after administration of peptide (FIG. 11); format: in vivo
[3] = target: T2, GHS-R 1a (Rattus norvegicus, UniProt O08725); experiment: Spontaneous and ghrelin-induced food intake in rats after i.c.v. GHS-A; format: in vivo
T2 construct: free-moving rats were i.c.v. injected with either normal saline or GHS-A (5 μg); from tissue; host or cells: whole animal (rat; hypothalamus/pituitary)
Method: (§1) Adult male Sprague Dawley rats (225-260 g) were purchased from Charles River Canada (St. Constant, Canada) and individually housed on a 12-h light, 12-h dark cycle (lights on, 0600-1800 h) in a temperature (22±1° C.)- and humidity-controlled room. Purina rat chow (Ralston Purina Co., St. Louis, Mo.) and tap water were available ad libitum.
(§2) Chronic intracerebroventricular (i.c.v.) and intracardiac venous cannulas were implanted under sodium pentobarbital (50 mg/kg, i.p.) anesthesia using previously described techniques in (2) and (11). The placement of the icy cannulae was verified by both a positive drinking response to i.c.v. carbachol (100 ng/10 μl) injection on the day after surgery and methylene blue dye at the time of death. After surgery, the rats were placed directly in isolation test chambers with food and H2O freely available until body weight returned to preoperative levels (usually within 5-7 d). During this time the rats were handled daily to minimize any stress associated with handling on the day of the experiment. On the test day, food was removed 1.5 h before the start of sampling and was returned at the end.
The effects of the GHS-A on both spontaneous and ghrelin-induced food intake and body weight gain were investigated. For the spontaneous experiments, the rats were fasted overnight (1600-1100 h next morning) and were i.c.v.-injected with either normal saline or GHS-A (5 μg) at 1100 h. Food intake was monitored on an hourly basis for 5 h after the initial injection (until 1600 h) and subsequently overnight (1600-0900 h next morning). A measured amount of rat chow pellets was placed in the cage every hour. Spillage was collected by placement of a diaper under the rat cages, and total food consumed for each period was calculated by subtracting uneaten food plus spillage from total given. Body weights were recorded daily at 0900 h. The latency to the onset of the first meal after the injection and the duration of that meal were also monitored.
Food intake was monitored on an hourly basis as described above. In this experiment, food was removed 1.5 h before the start of the test.

[4] = target: Ghrelin/GHRP/GHS Receptor (Rattus norvegicus, UniProt O08725); experiment: In vivo GH release in rat (serum GH by RIA after i.v. peptide); settings: Table 2
Method: For the in vivo assay of GH Release in rat, immature female Sprague Dawley rats were obtained from Charles River from Wilmington, Mass. After arrival they were housed at 25° C. with a 14:10 h light:dark cycle. Water and Purina rat chow were available at libitum. Pups were weaned at 21 days of age.
Immature twenty six day old female Sprague Dawley rats, 3-6 rats per treatment dose, were pretreated with pentobarbital 20 minutes before iv injection of vehicle/peptide or peptide plus stimulator. Injection was made as a 0.1 ml solution. For the non-pentobarbital treated rat assay, peptides were administered iv into the tail vein of conscious rats. All animals were sacrificed by guillotine after iv peptide or vehicle. Trunk blood was collected at +10-15 minutes […], allowed to clot, centrifuged and serum stored until assayed for GH levels by RIA. The GH RIA reagents were distributed by the NIH. Control data was collected from rats treated with only the corresponding vehicle in the absence of peptide or stimulator. Control stimulated data was collected from rats treated with stimulator alone in the absence of any peptide.

[5] = target: T2, GHS-R 1a; experiment: Plasma GH (ghrelin-induced, GHRH-induced, spontaneous pulsatile) in free-moving adult male rats after GHS-A; format: in vivo; settings: for plasma GH response to ghrelin, central: 5 μg GHS-A i.c.v. 15 min before 500 ng ghrelin i.c.v.
Method: as §1, §2
The efficacy of GHS-A to antagonize ghrelin's stimulatory action on GH at both central and peripheral sites was examined. […] (500 ng). Both the human ghrelin peptide (provided by Dr. K. Chang, Phoenix Pharmaceuticals, Inc., Belmont, Calif.) and the GHS-A were diluted in normal saline just before use. Blood samples (0.35 ml) were withdrawn every 15 min over a 6-h sampling period (1000-1600 h) from all animals. […] All blood samples were immediately centrifuged, and plasma was separated and stored at −20° C. for subsequent assay of GH. To avoid hemodynamic disturbance, the red blood cells were resuspended in normal saline and returned to the animal after removal of the next blood sample.
Blood samples were withdrawn from 1000-1600 h, as described above.
These time points were chosen because they correspond closely to the time of onset of the spontaneous GH secretory episodes, as previously documented in our laboratory (2, 4). Blood samples were withdrawn from 1000-1600 h, as described above; however, no blood sample was withdrawn 5 min after the injections.

[6] = target: T3, ghrelin O-acyltransferase (GOAT) (Mus musculus, UniProt P0C7A3); settings: Yang et al. 2008; cited from earlier work
T3 sequence (P0C7A3 1-435): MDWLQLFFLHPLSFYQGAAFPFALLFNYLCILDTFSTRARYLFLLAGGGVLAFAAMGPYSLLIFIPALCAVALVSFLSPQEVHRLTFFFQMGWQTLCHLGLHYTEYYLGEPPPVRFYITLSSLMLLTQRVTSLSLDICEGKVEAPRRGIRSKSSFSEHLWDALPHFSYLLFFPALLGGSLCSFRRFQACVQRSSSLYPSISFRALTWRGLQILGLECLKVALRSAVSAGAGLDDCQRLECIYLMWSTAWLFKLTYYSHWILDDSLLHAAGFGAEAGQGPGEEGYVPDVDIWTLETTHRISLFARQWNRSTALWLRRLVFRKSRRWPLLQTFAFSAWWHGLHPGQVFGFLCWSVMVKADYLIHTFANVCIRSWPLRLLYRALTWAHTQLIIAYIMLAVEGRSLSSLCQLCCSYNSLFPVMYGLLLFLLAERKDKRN

[7] = listed as Gly-Met-Ala-Gly-Ser-(Dap-Oct)-Phe-Leu-Ser-Pro-Glu-His-NH2
[8] = overnight-fasted animals, 5 μg GHS-A i.c.v.
[9] = 5 μg GHS-A i.c.v., spontaneous GH pulses
[10] = listed as Gly-Met-Ala-Gly-Ser-(Dap-Palmityl)-Phe-Leu-Ser-Pro-Glu-His-NH2

T2 sequence (O08725 whole entry): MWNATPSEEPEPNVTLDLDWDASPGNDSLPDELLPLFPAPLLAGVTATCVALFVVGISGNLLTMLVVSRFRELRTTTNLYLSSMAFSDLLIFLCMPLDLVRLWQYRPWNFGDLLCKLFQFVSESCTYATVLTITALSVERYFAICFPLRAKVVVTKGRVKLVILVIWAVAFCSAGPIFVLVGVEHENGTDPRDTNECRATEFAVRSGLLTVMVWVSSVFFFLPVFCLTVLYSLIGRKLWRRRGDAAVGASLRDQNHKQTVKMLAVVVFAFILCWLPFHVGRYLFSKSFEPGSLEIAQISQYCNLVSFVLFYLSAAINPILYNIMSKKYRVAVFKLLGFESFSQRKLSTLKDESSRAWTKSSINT
T1 sequence (O08725 whole entry): as above
Ghrelin/GHRP/GHS Receptor, sequence (O08725 whole entry): as above

Substance: Gly-Met-Ala-Gly-Ser-(Dap-Oct)-Phe-Leu-Ser-Pro-Glu-His-NH2 (GMAGS[Dap](Octanoyl)FLSPEH-NH2; N-terminus assumed; SMILES CCCCCCCC(=O)NC[C@H](NC(=O)[C@H](CO)NC(=O)CNC(=O)[C@H](C)NC(=O)[C@H](CCSC)NC(=O)CN)C(=O)N[C@@H](Cc1ccccc1)C(=O)N[C@@H](CC(C)C)C(=O)N[C@@H](CO)C(=O)N1CCC[C@H]1C(=O)N[C@@H](CCC(=O)O)C(=O)N[C@@H](Cc1c[nH]cn1)C(N)=O) [peptide #3]
food intake [1]: inhibited food intake
food intake [1, 7]: reduced
growth hormone secretion / plasma growth hormone levels [2]: inhibited growth hormone secretion
growth hormone secretion / plasma growth hormone levels [2, 7]: inhibited

cumulative food intake, ghrelin-stimulated ([3]; 5 μg GHS-A i.c.v. before ghrelin 500 ng i.c.v., up to 5 h after injection): significantly suppressed
ghrelin-stimulated food intake in the first hour after injections ([3]; 5 μg i.c.v. before ghrelin 500 ng i.c.v.): significantly inhibited
cumulative food intake beyond the first hour after injection [3, 8]: not inhibited
spontaneous food intake in the first hour after injection [3, 8]: significantly inhibited
Stimulated GH release from rat ([4]; peptide antagonist 30 μg i.v. + stimulator DAla-DβNal-Ala-Trp-DPhe-Lys-NH2 0.3 μg): 733 ± 85 ng/mL
Stimulated GH release from rat ([4]; peptide antagonist 100 μg i.v. + stimulator DAla-DβNal-Ala-Trp-DPhe-Lys-NH2 1 μg): 818 ± 269 ng/mL
1-h GH AUC of the spontaneous GH secretory episode at 1100 h ([5]; 5 μg GHS-A i.c.v.): significantly reduced
1-h GH AUC of the spontaneous GH secretory episode at 1400 h ([5]; 5 μg GHS-A i.c.v.): significantly reduced
overall 6-h GH AUC ([5]; 5 μg GHS-A i.c.v.): significantly reduced
plasma GH response to ghrelin, central ([5]; listed as GHS-A): abolished
plasma GH response to ghrelin, central ([5]; listed as HisDβNalDLysTrpDPheLysNH2): virtually obliterated
amplitude of the spontaneous GH pulses ([5]; 5 μg GHS-A i.c.v. 15 min before expected GH secretory bursts): severely attenuated
reduction of GH AUC following i.c.v. ghrelin ([5]; 5 μg GHS-A i.c.v., ghrelin 500 ng i.c.v., vs normal saline controls): 15 fold
GH interpeak interval (cluster analysis) [5, 9]: no significant effect
GH nadir (cluster analysis) [5, 9]: no significant effect
GH peak frequency (cluster analysis) [5, 9]: no significant effect
GH peak height (cluster analysis) [5, 9]: significant suppression
plasma GH response to ghrelin, peripheral ([5]; 250 μg GHS-A i.v. 15 min before 5 μg ghrelin i.v.): strongly blocked
reduction of GH AUC following i.v. ghrelin ([5]; 250 μg GHS-A i.v., ghrelin 5 μg i.v., vs normal saline controls): 5 fold
GH response to GHRH ([5]; GHRH 5 μg i.v.): did not significantly reduce
Substance: His-DβNal-DLys-Trp-DPhe-Lys-NH2 (H[d2Nal][dK]W[dF]K-NH2; N-terminus assumed; SMILES NCCCC[C@H](NC(=O)[C@@H](Cc1ccccc1)NC(=O)[C@H](Cc1c[nH]c2ccccc12)NC(=O)[C@@H](CCCCN)NC(=O)[C@@H](Cc1ccc2ccccc2c1)NC(=O)[C@@H](N)Cc1c[nH]cn1)C(N)=O) [GHRP derivative ghrelin receptor antagonist; GHS-A of the rat studies per b295]

Substance: Gly-Met-Ala-Gly-Ser-(Dap-Palmityl)-Phe-Leu-Ser-Pro-Glu-His-NH2 (GMAGS[Dap](Palmitoyl)FLSPEH-NH2; N-terminus assumed; SMILES CCCCCCCCCCCCCCCC(=O)NC[C@H](NC(=O)[C@H](CO)NC(=O)CNC(=O)[C@H](C)NC(=O)[C@H](CCSC)NC(=O)CN)C(=O)N[C@@H](Cc1ccccc1)C(=O)N[C@@H](CC(C)C)C(=O)N[C@@H](CO)C(=O)N1CCC[C@H]1C(=O)N[C@@H](CCC(=O)O)C(=O)N[C@@H](Cc1c[nH]cn1)C(N)=O) [peptide #6]
food intake [1, 10]: did not inhibit GH secretion or decreased food intake
growth hormone secretion / plasma growth hormone levels [2, 10]: did not inhibit

Substance: Gly-Ser-Ser(Oct)-Phe-Leu (GSS(Octanoyl)FL) [octanoylated ghrelin pentapeptide]
GOAT activity [6]: inhibited
potency enhancement when octanoylated serine-3 replaced by octanoylated diaminopropionic acid [6]: 45 fold
